Test results: US20140274782A1, “AFFINITY REAGENTS AND METHODS FOR DETECTION, PURIFICATION, AND PROTEOMIC ANALYSIS OF METHYLATED PROTEINS” (The Board of Trustees of the Leland Stanford Junior …, priority 2013, published 2014)

T1: G9a and GLP (Homo sapiens, UniProt Q96KQ7+Q9H9B1)
T1 sequence (Q96KQ7 2-1210 limits assumed): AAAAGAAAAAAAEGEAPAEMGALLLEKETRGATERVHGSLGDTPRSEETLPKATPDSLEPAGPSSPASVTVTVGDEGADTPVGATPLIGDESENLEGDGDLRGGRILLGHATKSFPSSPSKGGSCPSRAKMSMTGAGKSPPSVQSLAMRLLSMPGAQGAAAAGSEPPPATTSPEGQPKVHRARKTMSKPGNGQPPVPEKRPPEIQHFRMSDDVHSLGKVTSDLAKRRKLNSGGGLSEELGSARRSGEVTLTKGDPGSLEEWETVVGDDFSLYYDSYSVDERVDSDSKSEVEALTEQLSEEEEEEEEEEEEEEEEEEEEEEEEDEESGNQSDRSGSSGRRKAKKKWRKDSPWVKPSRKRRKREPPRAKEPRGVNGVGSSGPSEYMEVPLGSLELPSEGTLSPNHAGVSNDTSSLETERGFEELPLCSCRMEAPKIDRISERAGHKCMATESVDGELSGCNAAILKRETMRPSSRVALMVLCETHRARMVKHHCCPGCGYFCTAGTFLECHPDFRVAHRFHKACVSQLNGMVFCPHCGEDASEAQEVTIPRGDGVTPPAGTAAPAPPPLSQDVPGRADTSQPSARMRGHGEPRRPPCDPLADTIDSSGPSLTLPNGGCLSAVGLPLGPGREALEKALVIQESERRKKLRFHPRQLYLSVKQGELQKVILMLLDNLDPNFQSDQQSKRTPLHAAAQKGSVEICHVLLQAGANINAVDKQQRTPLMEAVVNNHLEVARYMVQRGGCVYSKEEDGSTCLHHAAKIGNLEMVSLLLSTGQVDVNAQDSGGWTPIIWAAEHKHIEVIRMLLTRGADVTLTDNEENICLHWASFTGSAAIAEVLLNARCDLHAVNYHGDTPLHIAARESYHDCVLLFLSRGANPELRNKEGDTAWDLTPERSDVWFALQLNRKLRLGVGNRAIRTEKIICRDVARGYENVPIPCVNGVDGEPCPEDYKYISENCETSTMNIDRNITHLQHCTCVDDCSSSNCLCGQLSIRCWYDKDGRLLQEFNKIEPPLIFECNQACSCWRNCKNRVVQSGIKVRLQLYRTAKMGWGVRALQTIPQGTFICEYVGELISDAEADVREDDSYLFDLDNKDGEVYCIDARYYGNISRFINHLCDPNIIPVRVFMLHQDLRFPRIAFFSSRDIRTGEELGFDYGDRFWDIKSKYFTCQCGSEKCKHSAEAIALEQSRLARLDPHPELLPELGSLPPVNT
T1 sequence (Q9H9B1 2-1298 limits assumed): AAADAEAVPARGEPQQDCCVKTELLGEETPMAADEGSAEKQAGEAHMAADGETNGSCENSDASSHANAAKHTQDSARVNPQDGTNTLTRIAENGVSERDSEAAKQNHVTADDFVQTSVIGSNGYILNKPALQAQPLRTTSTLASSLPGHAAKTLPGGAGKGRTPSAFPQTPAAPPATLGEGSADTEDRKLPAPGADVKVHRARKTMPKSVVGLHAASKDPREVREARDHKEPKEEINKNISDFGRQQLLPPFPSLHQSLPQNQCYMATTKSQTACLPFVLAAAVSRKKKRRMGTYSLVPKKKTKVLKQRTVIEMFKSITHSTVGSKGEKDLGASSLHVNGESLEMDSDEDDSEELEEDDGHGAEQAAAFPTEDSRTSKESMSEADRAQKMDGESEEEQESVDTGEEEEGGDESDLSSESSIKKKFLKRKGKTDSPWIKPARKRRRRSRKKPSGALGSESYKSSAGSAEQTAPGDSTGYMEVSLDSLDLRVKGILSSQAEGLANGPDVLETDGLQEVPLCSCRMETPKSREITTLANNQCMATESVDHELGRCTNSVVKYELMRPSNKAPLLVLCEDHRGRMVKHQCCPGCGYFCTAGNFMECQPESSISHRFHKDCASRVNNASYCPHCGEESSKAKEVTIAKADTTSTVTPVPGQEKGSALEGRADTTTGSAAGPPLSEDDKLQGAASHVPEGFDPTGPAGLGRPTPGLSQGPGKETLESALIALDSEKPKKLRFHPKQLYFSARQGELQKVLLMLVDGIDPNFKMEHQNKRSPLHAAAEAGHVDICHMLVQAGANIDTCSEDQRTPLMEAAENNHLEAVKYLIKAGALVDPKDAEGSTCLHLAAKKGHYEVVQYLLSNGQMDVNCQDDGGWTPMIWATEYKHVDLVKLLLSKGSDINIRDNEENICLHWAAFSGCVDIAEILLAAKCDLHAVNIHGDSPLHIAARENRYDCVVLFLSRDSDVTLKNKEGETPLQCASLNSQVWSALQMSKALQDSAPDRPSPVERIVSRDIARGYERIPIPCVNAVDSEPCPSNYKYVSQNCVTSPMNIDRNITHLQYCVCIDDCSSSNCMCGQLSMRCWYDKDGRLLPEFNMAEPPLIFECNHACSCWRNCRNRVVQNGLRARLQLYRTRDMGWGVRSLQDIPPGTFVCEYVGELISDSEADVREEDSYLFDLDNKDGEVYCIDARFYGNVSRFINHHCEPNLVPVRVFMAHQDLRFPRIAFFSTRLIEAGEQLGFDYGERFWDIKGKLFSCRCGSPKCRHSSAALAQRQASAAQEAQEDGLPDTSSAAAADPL


Columns and labels:
3×MBT domain of L3MBTL1 = assay: Triple SILAC pull-down, 3xMBT/3xMBTD355N ratio (cytoplasmic, nuclear and chromatin fractions of 293T cells); assay type: binding, human; conditions: for 3xMBT/D355N UNC Heavy: experiment with UNC0638 in heavy SILAC media; for 3xMBT/D355N UNC Light: experiment with UNC0638 in light SILAC media;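 for all read-outs here: proteins quantified with MaxQuant, requiring at least two unique peptides and quantification in both label directions, normalized to the mean of proteins from a digested loading control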
Protocol: For stable isotope labeling by amino acids in cell culture (SILAC) experiments HEK 293T cells were grown for at least six doublings in DMEM for SILAC supplemented with 10% dialyzed fetal bovine serum (FBS), 230 mg/L L-proline and either 100 mg/L each of L-lysine and L-arginine (“light” medium), D4-L-lysine and ^13C6-L-arginine (“medium” media), or ^13C6^15N2-L-lysine and ^13C6^15N4-L-arginine (Thermo Scientific). Heavy methyl labeling used DMEM without L-Methionine or L-Cysteine supplemented with D3^13C-L-Methionine (Sigma), L-Cysteine (Sigma) and 10% dialyzed FBS.
For UNC0638 treatments cells were treated for 24 hours with UNC0638 at 2.5 μM or DMSO vehicle control. One experiment treated cells in light media with UNC0638, the other treated cells in heavy media. Both experiments included cells in medium media treated with DMSO for negative control pull-down with 3×MBTD355N.
UNC0638 treatment experiments used a Q-Exactive mass spectrometer (ThermoFisher Scientific). A 25 cm HPLC column with 3 μm Reliasil (Orochem) was used to separate peptides over a 4 hour gradient from 0 to 75% acetonitrile. Ions were generated using a custom nanospray source flowing at 250 nL/minute. Mass spectrometry settings were 70,000 MS1 resolution, data dependent selection of up to 20 precursor ions per cycle, dynamic exclusion of 30 seconds and isolation window of 2 m/z. The nuclear fraction from the experiment using UNC0638 on cells in heavy media was additionally analyzed by 2D HPLC-MS/MS as described earlier.
Peptides were identified and quantified using MaxQuant version 1.2.2.5 (Cox and Mann, supra) with the following changes to default settings: mono- and di-methylation of lysine, and oxidation of methionine, and N-terminal acetylation as variable modifications, disabled “I=L”, up to three modifications per peptide, one missed cleavage, maximum charge of 5. Protein and peptide FDR were set to 1%, and proteins were filtered post-hoc for at least two unique peptides. Proteins were excluded from an experiment if they were not quantified in both labeling directions. Because FDR is unreliable for small numbers of peptides the modification site FDR was set to 10% and all methylated peptides were manually verified. […] Quantitative protein data was normalized to the mean value among proteins identified by analyzing 50 ng of digested loading control.
For UNC0638 experiments the treated vs. untreated ratio was determined by subtracting the value from 3×MBTD355N prior to dividing values from the light and heavy channels. Only proteins showing a two-fold signal to background ratio (3×MBT/3×MBTD355N) were evaluated as potential G9a/GLP substrates.

G9a and GLP = target: T1, G9a and GLP; assay: Triple SILAC pull-down after UNC0638 treatment of 293T cells, DMSO/UNC0638 ratio of protein captured by 3×MBT; assay type: cell-based; set-up: cells were treated for 24 hours with UNC0638 at 2.5 μM or DMSO vehicle control; endogenous in cells; host or cells: HEK 293T; conditions: for Relative to UNC0638 UNC Heavy: UNC0638 in heavy SILAC media; for Relative to UNC0638 UNC Light: UNC0638 in light SILAC media; for Relative to UNC0638 Average: average of UNC Light and UNC Heavy experiments;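 for all read-outs here: mass spectrometry (Q-Exactive) SILAC quantitation, DMSO/UNC0638 ratio computed after subtracting 3×MBTD355N mutant pull-down background, only proteins with at least twofold 3×MBT over mutant signal considered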
[1] = SILAC ratio 3xMBT vs 3xMBTD355N pull-down, 293T cells, all values in log base 2
[2] = SILAC ratio DMSO relative to UNC0638, pull-down with 3xMBT, all values in log base 2
[3] = SILAC ratio, pull-down 3xMBT vs 3xMBTD355N
[4] = SILAC ratio DMSO/UNC0638 of protein pulled down with 3xMBT

Molecule | Relative to UNC0638 UNC Heavy (G9a and GLP; [2]) | Relative to UNC0638 UNC Light (G9a and GLP; [2]) | Relative to UNC0638 Average (G9a and GLP; all values in log base 2) | Relative to UNC0638 UNC Heavy (G9a and GLP; [4]) | Relative to UNC0638 UNC Light (G9a and GLP; [4]) | Relative to UNC0638 Average (G9a and GLP) | Candidate G9a/GLP target (G9a and GLP; reduced association with 3xMBT after UNC0638 treatment) | 3xMBT/D355N UNC Heavy (3×MBT domain of L3MBTL1; [1]) | 3xMBT/D355N UNC Light (3×MBT domain of L3MBTL1; [1]) | 3xMBT/D355N UNC Heavy (3×MBT domain of L3MBTL1; [3]) | 3xMBT/D355N UNC Light (3×MBT domain of L3MBTL1; [3])
NOSIP (protein, UniProt Q9Y314 1-301, looked up) Nitric oxide …: MTRHGKNCTAGAVYTYHEKKKDTAASGYGTQNIRLSRDAVKDFDCCCLSLQPCHDPVVTPDGYLYEREAILEYILHQKKEIARQMKAYEKQRGTRREEQKELQRAASQDHVRGFLEKESAIVSRPLNPFTAKALSGTSPDDVQPGPSVGPPSKDKDKVLPSFWIPSLTPEAKATKLEKPSRTVTCPMSGKPLRMSDLTPVHFTPLDSSVDRVGLITRSERYVCAVTRDSLSNATPCAVLRPSGAVVTLECVEKLIRKDMVDPVTGDKLTDRDIIVLQRGGTGFAGSGVKLQAEKSRPVMQA | 0.03 log base 2 | −0.11 log base 2 | −0.04 log base 2 | – | – | – | – | 1.54 log base 2 | 2.28 log base 2 | – | –
CSTF3 (protein, UniProt Q12996 2-717, looked up) Cleavage stimulation factor …: SGDGATEQAAEYVPEKVKKAEKKLEENPYDLDAWSILIREAQNQPIDKARKTYERLVAQFPSSGRFWKLYIEAEIKAKNYDKVEKLFQRCLMKVLHIDLWKCYLSYVRETKGKLPSYKEKMAQAYDFALDKIGMEIMSYQIWVDYINFLKGVEAVGSYAENQRITAVRRVYQRGCVNPMINIEQLWRDYNKYEEGINIHLAKKMIEDRSRDYMNARRVAKEYETVMKGLDRNAPSVPPQNTPQEAQQVDMWKKYIQWEKSNPLRTEDQTLITKRVMFAYEQCLLVLGHHPDIWYEAAQYLEQSSKLLAEKGDMNNAKLFSDEAANIYERAISTLLKKNMLLYFAYADYEESRMKYEKVHSIYNRLLAIEDIDPTLVYIQYMKFARRAEGIKSGRMIFKKAREDTRTRHHVYVTAALMEYYCSKDKSVAFKIFELGLKKYGDIPEYVLAYIDYLSHLNEDNNTRVLFERVLTSGSLPPEKSGEIWARFLAFESNIGDLASILKVEKRRFTAFKEEYEGKETALLVDRYKFMDLYPCSASELKALGYKDVSRAKLAAIIPDPVVAPSIVPVLKDEVDRKPEYPKPDTQQMIPFQPRHLAPPGLHPVPGGVFPVPPAAVVLMKLLPPPICFQGPFVQVDELMEIFRRCKIPNTVEEAVRIITGGAPELAVEGNGPVESNAVLTKAVKRPNEDSDEDEEKGAVVPPVHDIYRARQQKRIR | −0.78 log base 2 | 0.47 log base 2 | −0.15 log base 2 | – | – | – | – | 1.58 log base 2 | 1.48 log base 2 | – | –

The next lines start with results.

Relative to UNC0638 UNC Heavy (G9a and GLP; [2]) | Relative to UNC0638 UNC Light (G9a and GLP; [2]) | Relative to UNC0638 Average (G9a and GLP; all values in log base 2) | Relative to UNC0638 UNC Heavy (G9a and GLP; [4]) | Relative to UNC0638 UNC Light (G9a and GLP; [4]) | Relative to UNC0638 Average (G9a and GLP) | Candidate G9a/GLP target (G9a and GLP; reduced association with 3xMBT after UNC0638 treatment) | Molecule | 3xMBT/D355N UNC Heavy (3×MBT domain of L3MBTL1; [1]) | 3xMBT/D355N UNC Light (3×MBT domain of L3MBTL1; [1]) | 3xMBT/D355N UNC Heavy (3×MBT domain of L3MBTL1; [3]) | 3xMBT/D355N UNC Light (3×MBT domain of L3MBTL1; [3])
– | – | – | 0.55 log base 2 | 0.36 log base 2 | 0.46 log base 2 | ✓ | CYFIP1 (protein, UniProt Q7L576 1-1253, looked up) Cytoplasmic FMR1-interacting …: MAAQVTLEDALSNVDLLEELPLPDQQPCIEPPPSSLLYQPNFNTNFEDRNAFVTGIARYIEQATVHSSMNEMLEEGQEYAVMLYTWRSCSRAIPQVKCNEQPNRVEIYEKTVEVLEPEVTKLMNFMYFQRNAIERFCGEVRRLCHAERRKDFVSEAYLITLGKFINMFAVLDELKNMKCSVKNDHSAYKRAAQFLRKMADPQSIQESQNLSMFLANHNKITQSLQQQLEVISGYEELLADIVNLCVDYYENRMYLTPSEKHMLLKVMGFGLYLMDGSVSNIYKLDAKKRINLSKIDKYFKQLQVVPLFGDMQIELARYIKTSAHYEENKSRWTCTSSGSSPQYNICEQMIQIREDHMRFISELARYSNSEVVTGSGRQEAQKTDAEYRKLFDLALQGLQLLSQWSAHVMEVYSWKLVHPTDKYSNKDCPDSAEEYERATRYNYTSEEKFALVEVIAMIKGLQVLMGRMESVFNHAIRHTVYAALQDFSQVTLREPLRQAIKKKKNVIQSVLQAIRKTVCDWETGHEPFNDPALRGEKDPKSGFDIKVPRRAVGPSSTQLYMVRTMLESLIADKSGSKKTLRSSLEGPTILDIEKFHRESFFYTHLINFSETLQQCCDLSQLWFREFFLELTMGRRIQFPIEMSMPWILTDHILETKEASMMEYVLYSLDLYNDSAHYALTRFNKQFLYDEIEAEVNLCFDQFVYKLADQIFAYYKVMAGSLLLDKRLRSECKNQGATIHLPPSNRYETLLKQRHVQLLGRSIDLNRLITQRVSAAMYKSLELAIGRFESEDLTSIVELDGLLEINRMTHKLLSRYLTLDGFDAMFREANHNVSAPYGRITLHVFWELNYDFLPNYCYNGSTNRFVRTVLPFSQEFQRDKQPNAQPQYLHGSKALNLAYSSIYGSYRNFVGPPHFQVICRLLGYQGIAVVMEELLKVVKSLLQGTILQYVKTLMEVMPKICRLPRHEYGSPGILEFFHHQLKDIVEYAELKTVCFQNLREVGNAILFCLLIEQSLSLEEVCDLLHAAPFQNILPRVHVKEGERLDAKMKRLESKYAPLHLVPLIERLGTPQQIAIAREGDLLTKERLCCGLSMFEVILTRIRSFLDDPIWRGPLPSNGVMHVDECVEFHRLWSAMQFVYCIPVGTHEFTVEQCFGDGLHWAGCMIIVLLGQQRRFAVLDFCYHLLKVQKHDGKDEIIKNVPLKKMVERIRKFQILNDEIITILDKYLKSGDGEGTPVEHVRCFQPPIHQSLASS | – | – | 1.93 log base 2 | 1.58 log base 2
−0.09 log base 2 | −0.02 log base 2 | −0.06 log base 2 | – | – | – | – | ZRANB2 (protein, UniProt O95218 1-330, looked up) Zinc finger Ran-binding …: MSTKNFRVSDGDWICPDKKCGNVNFARRTSCNRCGREKTTEAKMMKAGGTEIGKTLAEKSRGLFSANDWQCKTCSNVNWARRSECNMCNTPKYAKLEERTGYGGGFNERENVEYIEREESDGEYDEFGRKKKKYRGKAVGPASILKEVEDKESEGEEEDEDEDLSKYKLDEDEDEDDADLSKYNLDASEEEDSNKKKSNRRSRSKSRSSHSRSSSRSSSPSSSRSRSRSRSRSSSSSQSRSRSSSRERSRSRGSKSRSSSRSHRGSSSPRKRSYSSSSSSPERNRKRSRSRSSSSGDRKKRRTRSRSPERRHRSSSGSSHSGSRSSSKKK | 0.71 log base 2 | 2.59 log base 2 | – | –
